Data: the domain aggregation screens of Martell et al. (2025)

Test: soluble fraction after stress (log2 fold change); higher = more stays soluble; pooled small domains, quantitative proteomics
Settings: stress: pH 4
Outline: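 After pH 4 stress, pooled custom libraries of small protein domains were quantified with high-throughput quantitative proteomics. Aggregation propensity is taken from the fold change in each domain's soluble amount following the acid stress. The scale is log2, where higher values mean more stayed soluble.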

HMQGVTVPDLTRVSLEEAVATISSLGLRYEISDRRSNAAFPANYVLDQAPGANTIVKPNRKVYLTVNAA
soluble fraction (log2): 0.381

HMEEMTIRQKRTMIFFIEATKHILQEDGYDHLTIREIAQRAGYNAATLYHYFRDLDELIIYGSVG
soluble fraction (log2): -0.602

HMISKRFQVDEENSNNRVDIFLANNLDSISRGIVQQLILDGKVLVNGETVKRNHLLKTNDEVDISFEI
soluble fraction (log2): 0.0466

HMNFHLEHHIAELLYRSIRGELSDFERQELNQWRSDSPMHETLFMRLQDDEYIDEELGVFIK
soluble fraction (log2): -1.89

HMANTVVMPNLLGKTMTEAKIELKELGIDITLKGSESSSKYSAGQIMEQNIAEGTKVEVGSSVEVTIAGS
soluble fraction (log2): 0.334

HMASVRPVAPPDPKTHTRLTYRIRRGDTLERIGRRYRVSIAEIQAWNTLRDPGDILAGQRLVIWIPTS
soluble fraction (log2): 0.117

HMSDEVNTDKAFRAIDSTLNRNVKGIAPRDHTLLRNTMITYFKSNDYIDYDTMIQSTLENYKPTELEQDKM
soluble fraction (log2): 0.135

HMGVSVNVQPAILDWAMQKAQMGNAGSSVIEMIAKWISGEKAPTFNQIEDVSKKISIPFGFFFLKEPPIE
soluble fraction (log2): -1.21

HMSPAETGIYHILVENGKPNRHGLDATNKNENWLRQFLITQNTRLEDVFLLLADDGGGIRFFKSQ
soluble fraction (log2): -0.658

HMLMDVRVPDIIGVEINQAKEILTASSLLIGKITYVSLPEIEKDLVIETSVLAGRRVSAGTVIDITVNKE
soluble fraction (log2): -0.87

HMEEEPALLRDLLAKTLEFGLIPQLSHHPALADRTQQLASAVRAAGSASALRNAAASLKSLWIDVDQ
soluble fraction (log2): -0.617

HMYESAMSDLHARIMSSDDPHGEIYKMLTQSGPEAKYIQDMYNETSIDRGLHPDDDFEDIIDAMVAELDD
soluble fraction (log2): -1.24

HMETLETYTSRLRQLEDITNNFKGVDKSFAIQAGREIRVMVVPEQVSDADMILMARDISKAIEAELEYPGQ
soluble fraction (log2): -0.315

HMHQKELLNLSYKEAKRYILDDFERVFFTNLLRKTGGNVSRAAQLAQVHRKNLYVKLTELGIDPRQFG
soluble fraction (log2): -0.585

HMKDLIGEAKAKELALGHAKLSASDVTFIHVELDWENGRRVYDVEFYSGAKEYDYEIDAKTGEIVSFDY
soluble fraction (log2): 0.00222

HMTSIISLAKARSIALQKVPGATSKNIHLSLDDEDDKQVYEGEIKYKQMEYVFEIDAKTGTFLKWTSERD
soluble fraction (log2): 0.185

HMQAPIFMNETDGKWYFREKYLNDNHEIAYRVHPEGYDQMEDALRNSVNALNEFAAEMKELRKQV
soluble fraction (log2): -0.64

HMLNIVTIFEEQFGRPLSPIELNIIKDWKESDYSDEMIVKALKEAVKSQVLNFRYVEGILNNWAKNG
soluble fraction (log2): -1.08

HMGPSLIRIASNPVAEVFIDGTRVGTTPFEMPADGTLKTVRLTAKDHDDLVVPLRSMKSMEIMLTLRRI
soluble fraction (log2): -0.136

HMVPLSPRFFDIFRKRKDLTRQNVDVYFRDHPTEITAFERYIKGLVSQSYIPAERADALLLVASQYKAK
soluble fraction (log2): 0.0777

HMLGKSNAERQLDLILGAIERSITGVSRSKLMQAYHLDSRGATAAFETLEQRGLITRSKSGRTELLIPTRV
soluble fraction (log2): 0.126

HMEHAETDTRERILVVAERLFRQLGYQKTTVADIAKELRMSPANVYRFFDSKKSIHEGVARTL
soluble fraction (log2): 0.275

HMEPERRHLEVPAEAEGERIDRFLASQLENLSRSRIQALIKAGYVRNRRGTIEDPGLRVKPGDAFVVDLPP
soluble fraction (log2): 0.255

HMLEAKQIQDNWESLIKLIEDNFTGERKENLLKMYTHFQDRMMFAPASSKEHFHNAFPGGYVEHVL
soluble fraction (log2): -0.942

HMVDFHAAYSILRIAPGASWQEIQAAYEKLNDAWREDRYPQVPFWNEKAAFKRREVEQAYEKLRKFHALRH
soluble fraction (log2): 0.0778

HMSDLVATKEQVVEAYKYGLGLGLDNSTLKMLLFDIRGEDVADQDKISDGMTVSEIEIWKEGMRTIAEEYL
soluble fraction (log2): -1.07

HMIIENIVVEIKGEVYNPGLYILEQGSRINDLIELSGGFTKDANGTDLNLAKVLSDGEVIIVSKKG
soluble fraction (log2): -1.35

HMYRPLYQQVYDFLVKQIAAGEWGPGESLPSEQALAGRLNVSQGTVRKALDALAADSLIDRRQGKGTYVAE
soluble fraction (log2): 0.32

HMQNNITISKEIELRTGPDDTYPTLKKVTAGDNVEMLSKSDTWYEIKTNDSFVGWVPGWSIL
soluble fraction (log2): -0.656

HMKEETEMVTIPDVTGKPLTEAANLLREAKLDYLAESTGTSVTKQMPLPGAEVMVNTTVLLYTG
soluble fraction (log2): 0.241

HMESSYKGFILDIETRQFSPTLIQRRGIAINPSGIVETTTEFSFATQEKVLIEDLKLIIDELDLRADY
soluble fraction (log2): -2.31

HMISDEELLVSTKKEIMSLATVLTKTDKKDDAIAIMKEYDPAANPNRIKDVNKAKELLERLQKLG
soluble fraction (log2): -0.104

HMKERLLDPYKDFIVNYLQKYPYTPAAVMHDKLKESYPDFPKVDPKTIYNFVMLLRRDFNIPKV
soluble fraction (log2): -0.406

HMQGEDEILKIHEALEELAQIDARLVRVVEMRYFVGLSNQEIADSLGVTTRTVERDWEKARTFLFNALHP
soluble fraction (log2): -0.717

HMDDIVPHSTKNHIIKTFLSLMNSLDIITDKNKKSLNQNVHIIFNKFNFSKKEANLFIGVLNRIQKALK
soluble fraction (log2): 0.134

HMKPVYNKVEIPRGGEYALVLSDGTKVHLNSMSSLRFPVAFTTGKREVELQGEAYFEVSKTGQPFIVNV
soluble fraction (log2): 0.22

HMSRLQDAELQAQIDKMAGAMQLRDIPVYVQDIPTINGLAAPDGRVFITQGFIDKYKLGEVSAGEIASVI
soluble fraction (log2): 0.316
